B1: 30-dhaC / 30-5mC-down (dsDNA)
DNA 1: CAGCATTATCACAGCGTTTACACAATAACC
DNA 2: GGTTATTGTGTAAACGCTGTGATAATGCTG
modifications: 5,6-dihydro-5-azacytosine at position 15 of strand 1 (written C); 5mC at position 15 of strand 2
B2: 30-5mZ / 30-5mC-down (dsDNA)
DNA 1: B1 DNA 1
DNA 2: B1 DNA 2
modifications: 5-methyl-2-pyrimidinone (5-methylzebularine) at position 15 of strand 1 (written C); 5mC at position 15 of strand 2

Target: M.MpeI (called wild type) (Mycoplasma penetrans? (printed "M. …, UniProt Q8EVR5 1-395, Q68R;K71R;S295P))
Experiment: EMSA; 80 uM SAM, 1 mM DTT, 10 mM MgCl2; non-covalent complex among the most abundant; EMSA: 10 mM Tris-HCl pH 7.9, 50 mM NaCl, 10 mM MgCl2, 1 mM DTT, 80 uM SAM, 37 C 1 h, 1 uM DNA, 0.5-4 uM protein; covalent SDS-PAGE: 10 mM Tris-HCl pH 7.9, 50 mM NaCl, 160 uM SAM or sinefungin, +/-10 mM DTT, 37 C
Conditions: protein: recombinant; tags: C-terminal LEHHHHHH; label: 5' Cy3 or 5' 32P on strand 2; blunt

Binder	binding result
B1	binds
B2	binds

From publication PMC11347137, “Cytosine analogues as DNA methyltransferase substrates”
